Laboratory results published in US20190144544A1 (Eli Lilly, published 2019).

B1: Antibody A (antibody, human IgG1, lambda, V domains shown)
VH: QVQLVQSGAEVKKPGSSVKVSCKASGGTFSSYAISWVRQAPGQGLEWMGGIIPIFGTANYAQKFQGRVTITADKSTSTAYMELSSLRSEDTAVYYCARSPDYSPYYYYGMDVWGQGTTVTVSS
VL: QSVLTQPPSASGTPGQRVTISCSGSSSNIGSNTVNWYQQLPGTAPKLLIYGNSNRPSGVPDRFSGSKSGTSASLAISGLQSEDEADYYCQSYDSSLSGSVFGGGIKLTVLG
B2: Antibody A-Fab (Fab, V domains shown)
VH: B1 VH
VL: B1 VL
notes: CH1 and the lambda constant domain are not specified for the Fab; also called Fab of Antibody A

Columns and labels:
[1] = target: cell surface PD-L1 (human, UniProt Q9NZQ7 19-290); test: cell-based or functional assay
cell surface PD-L1, sequence (Q9NZQ7 19-290 limits assumed): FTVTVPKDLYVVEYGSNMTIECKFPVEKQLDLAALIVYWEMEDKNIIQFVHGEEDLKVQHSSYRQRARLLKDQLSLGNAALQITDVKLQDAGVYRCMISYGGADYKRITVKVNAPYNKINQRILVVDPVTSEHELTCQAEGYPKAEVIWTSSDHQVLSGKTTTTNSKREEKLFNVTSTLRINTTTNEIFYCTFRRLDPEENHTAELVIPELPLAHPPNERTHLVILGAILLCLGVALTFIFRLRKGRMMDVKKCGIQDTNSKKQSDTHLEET

[2] = target: T1, human PD-L1 monomer (human, UniProt Q9NZQ7 19-238, limits assumed); test: SPR (Biacore T200) at 20, 25, 37 and 42 °C, Fab as analyte over immobilised human PD-L1 monomer; van't Hoff analysis of the association phase
T1 construct: Amine-coupled to the sensor chip; also called hPD-L1 monomer; hPD-L1
T1 sequence (Q9NZQ7 19-238 limits assumed): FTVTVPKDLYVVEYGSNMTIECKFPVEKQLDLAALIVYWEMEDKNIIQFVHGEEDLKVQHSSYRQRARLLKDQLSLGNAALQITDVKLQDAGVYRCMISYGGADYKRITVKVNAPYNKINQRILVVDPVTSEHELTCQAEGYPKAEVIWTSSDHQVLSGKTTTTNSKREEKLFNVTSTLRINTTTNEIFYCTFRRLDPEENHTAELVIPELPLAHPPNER
Experimental: The sample gradients are prepared in the running buffer HBS-EP (0.01M HEPES pH 7.4, 0.15M NaCl, 3 mM EDTA, 0.005% v/v surfactant P20). The binding experiments are repeated at four different temperatures: 20° C., 25° C., 37° C. and 42° C. Throughout the kinetics experiments, the flow rate is maintained at 30 μl/min and the association/contact time at 180 sec for all three Fabs. […] After dissociation, a 0.75 M NaCl, 25 mM NaOH solution regenerates the immobilized hPD-L1, and then the surface is stabilized for 30 sec with the running buffer. […] The binding kinetics are analyzed using the Biacore T200 Evaluation software (Version 3.0). Data is referenced to a blank flow cell, and the data is fitted to the 1:1 Langmuir binding model.
Steady-state, association, and dissociation are the three binding phases analyzed. MATLAB is utilized for the linear regression analysis.

Row | IFN-γ secretion fold change vs. IgG control, mixed lymphocyte reaction, 0.01 nM antibody [1] [fold] | IFN-γ secretion fold change vs. IgG control, mixed lymphocyte reaction, 0.05 nM antibody [1] [fold] | IFN-γ secretion fold change vs. IgG control, mixed lymphocyte reaction, 0.27 nM antibody [1] [fold] | IFN-γ secretion fold change vs. IgG control, mixed lymphocyte reaction, 1.3 nM antibody [1] [fold] | IFN-γ secretion fold change vs. IgG control, mixed lymphocyte reaction, 6.7 nM antibody [1] [fold] | IFN-γ secretion fold change vs. IgG control, mixed lymphocyte reaction, 33.3 nM antibody [1] [fold] | ΔSon [2] | Binder
1 | 1.25 | 1.95 | 2.68 | 4.13 | 4.11 | 5.71 | – | B1
2 | – | – | – | – | – | – | -26 | B2
